Reference: patent US20160002348A1

Target: properdin-bound C3b (human) (UniProt P27918)
Assay: ELISA, factor B titrated on C3b-coated plates with properdin

Chain of human factor B (P00751 other isoform, or with tags, fused parts or gaps limits assumed): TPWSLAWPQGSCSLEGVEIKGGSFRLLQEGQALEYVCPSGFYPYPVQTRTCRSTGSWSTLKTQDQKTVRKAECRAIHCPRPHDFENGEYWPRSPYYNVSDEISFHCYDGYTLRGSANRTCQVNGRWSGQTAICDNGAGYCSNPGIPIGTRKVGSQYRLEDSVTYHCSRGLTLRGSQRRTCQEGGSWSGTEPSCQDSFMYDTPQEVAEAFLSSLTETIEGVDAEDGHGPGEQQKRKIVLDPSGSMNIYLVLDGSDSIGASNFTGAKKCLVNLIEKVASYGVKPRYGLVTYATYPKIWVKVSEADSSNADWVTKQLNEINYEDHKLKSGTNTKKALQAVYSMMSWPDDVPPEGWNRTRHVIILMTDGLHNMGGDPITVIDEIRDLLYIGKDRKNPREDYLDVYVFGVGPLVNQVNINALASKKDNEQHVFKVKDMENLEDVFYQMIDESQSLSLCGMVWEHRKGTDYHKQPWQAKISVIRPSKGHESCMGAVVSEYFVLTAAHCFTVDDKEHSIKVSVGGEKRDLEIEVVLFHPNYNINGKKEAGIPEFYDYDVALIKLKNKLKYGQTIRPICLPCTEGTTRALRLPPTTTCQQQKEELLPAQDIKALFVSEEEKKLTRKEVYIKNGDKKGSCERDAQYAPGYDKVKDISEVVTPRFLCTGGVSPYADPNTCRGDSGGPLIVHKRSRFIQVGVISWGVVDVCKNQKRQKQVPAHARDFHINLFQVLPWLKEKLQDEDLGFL

Kd: 1.11 nM
Substance: human factor B (from UniProt P00751 26-764) (enzyme)
